Measured values taken from patent US20140087995A1 (published 2014).
Numbered stars: 1 amine (or outer) side, 2 acyl side, 3 side chain; on linkers, the order of the positions; unused ones are H or OH. Bridge positions count the residues as written; N and C are the ends. Side chains are listed from the residue outwards. Ends that are not written are not given here. * marks the point of attachment. C20 diacid = O=C(O)CCCCCCCCCCCCCCCCCCC(=O)*; γGlu = O=C(O)[C@H](CCC(=O)[*:2])N[*:1]; AEEA = NCCOCCOCC(=O)O

T1: human amylin 3(a) receptor (human calcitonin receptor co-expressed with RAMP-3) (human, UniProt P30988 25-474; O60896 24-148, limits assumed)
T1 sequence (looked up) 1: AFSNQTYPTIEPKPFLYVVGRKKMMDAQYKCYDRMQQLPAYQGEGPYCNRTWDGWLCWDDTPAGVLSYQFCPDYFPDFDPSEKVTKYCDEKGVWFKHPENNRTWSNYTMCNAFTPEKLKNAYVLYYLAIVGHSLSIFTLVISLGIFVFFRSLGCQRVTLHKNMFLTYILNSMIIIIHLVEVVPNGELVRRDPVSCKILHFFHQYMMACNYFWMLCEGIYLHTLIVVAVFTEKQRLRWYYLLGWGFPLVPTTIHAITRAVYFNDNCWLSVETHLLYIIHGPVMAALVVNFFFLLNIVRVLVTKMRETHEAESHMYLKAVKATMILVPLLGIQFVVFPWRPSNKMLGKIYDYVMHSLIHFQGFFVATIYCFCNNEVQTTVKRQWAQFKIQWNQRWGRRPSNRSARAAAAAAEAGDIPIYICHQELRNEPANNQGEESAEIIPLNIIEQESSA
T1 sequence (looked up) 2: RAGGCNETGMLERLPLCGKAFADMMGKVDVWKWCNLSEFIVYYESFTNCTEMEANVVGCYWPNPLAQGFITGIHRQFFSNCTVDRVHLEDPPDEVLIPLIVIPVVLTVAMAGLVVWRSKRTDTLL

B1: N^ε1-[2-[2-[2-[[2-[2-[2-[[(4S)-4-carboxy-4-(19-carboxynonadecanoylamino)butanoyl]amino]ethoxy]ethoxy]acetyl]amino]ethoxy]ethoxy]acetyl]-[Arg17,Pro21,Pro27,Glu35 … (peptide)
peptide: K([AEEA-AEEA-γGlu-C20 diacid])CNTATCATQRLANFLRHSSPNFGAIPSSTNVGSETY-NH2
modifications: disulfide 2-7; N-terminus assumed
SMILES: CC[C@H](C)[C@H](NC(=O)[C@H](C)NC(=O)CNC(=O)[C@H](Cc1ccccc1)NC(=O)[C@H](CC(N)=O)NC(=O)[C@@H]1CCCN1C(=O)[C@H](CO)NC(=O)[C@H](CO)NC(=O)[C@H](Cc1c[nH]cn1)NC(=O)[C@H](CCCNC(=N)N)NC(=O)[C@H](CC(C)C)NC(=O)[C@H](Cc1ccccc1)NC(=O)[C@H](CC(N)=O)NC(=O)[C@H](C)NC(=O)[C@H](CC(C)C)NC(=O)[C@H](CCCNC(=N)N)NC(=O)[C@H](CCC(N)=O)NC(=O)[C@@H](NC(=O)[C@H](C)NC(=O)[C@@H]1CSSC[C@H](NC(=O)[C@@H](N)CCCCNC(=O)COCCOCCNC(=O)COCCOCCNC(=O)CC[C@H](NC(=O)CCCCCCCCCCCCCCCCCCC(=O)O)C(=O)O)C(=O)N[C@@H](CC(N)=O)C(=O)N[C@@H]([C@@H](C)O)C(=O)N[C@@H](C)C(=O)N[C@@H]([C@@H](C)O)C(=O)N1)[C@@H](C)O)C(=O)N1CCC[C@H]1C(=O)N[C@@H](CO)C(=O)N[C@@H](CO)C(=O)N[C@H](C(=O)N[C@@H](CC(N)=O)C(=O)N[C@H](C(=O)NCC(=O)N[C@@H](CO)C(=O)N[C@@H](CCC(=O)O)C(=O)N[C@H](C(=O)N[C@@H](Cc1ccc(O)cc1)C(N)=O)[C@@H](C)O)C(C)C)[C@@H](C)O
notes: also called compound 25
B2: N^ε1-[2-[2-[2-[[(4S)-4-carboxy-4-(19-carboxynonadecanoylamino)butanoyl]amino]ethoxy]ethoxy]acetyl]-[Ala14,Arg17,Pro21,Pro27,Pro31]-h-amylin (peptide)
peptide: K([AEEA-γGlu-C20 diacid])CNTATCATQRLAAFLRHSSPNFGAIPSSTPVGSNTY-NH2
modifications: disulfide 2-7; N-terminus assumed
SMILES: CC[C@H](C)[C@H](NC(=O)[C@H](C)NC(=O)CNC(=O)[C@H](Cc1ccccc1)NC(=O)[C@H](CC(N)=O)NC(=O)[C@@H]1CCCN1C(=O)[C@H](CO)NC(=O)[C@H](CO)NC(=O)[C@H](Cc1c[nH]cn1)NC(=O)[C@H](CCCNC(=N)N)NC(=O)[C@H](CC(C)C)NC(=O)[C@H](Cc1ccccc1)NC(=O)[C@H](C)NC(=O)[C@H](C)NC(=O)[C@H](CC(C)C)NC(=O)[C@H](CCCNC(=N)N)NC(=O)[C@H](CCC(N)=O)NC(=O)[C@@H](NC(=O)[C@H](C)NC(=O)[C@@H]1CSSC[C@H](NC(=O)[C@@H](N)CCCCNC(=O)COCCOCCNC(=O)CC[C@H](NC(=O)CCCCCCCCCCCCCCCCCCC(=O)O)C(=O)O)C(=O)N[C@@H](CC(N)=O)C(=O)N[C@@H]([C@@H](C)O)C(=O)N[C@@H](C)C(=O)N[C@@H]([C@@H](C)O)C(=O)N1)[C@@H](C)O)C(=O)N1CCC[C@H]1C(=O)N[C@@H](CO)C(=O)N[C@@H](CO)C(=O)N[C@H](C(=O)N1CCC[C@H]1C(=O)N[C@H](C(=O)NCC(=O)N[C@@H](CO)C(=O)N[C@@H](CC(N)=O)C(=O)N[C@H](C(=O)N[C@@H](Cc1ccc(O)cc1)C(N)=O)[C@@H](C)O)C(C)C)[C@@H](C)O
notes: also called compound 72
B3: N^ε1-[2-[2-[2-[[(4S)-4-carboxy-4-(19-carboxynonadecanoylamino)butanoyl]amino]ethoxy]ethoxy]acetyl]-[Arg17,Pro21,Pro27,Arg34]-h-amylin (peptide)
peptide: K([AEEA-γGlu-C20 diacid])CNTATCATQRLANFLRHSSPNFGAIPSSTNVGRNTY-NH2
modifications: disulfide 2-7; N-terminus assumed
SMILES: CC[C@H](C)[C@H](NC(=O)[C@H](C)NC(=O)CNC(=O)[C@H](Cc1ccccc1)NC(=O)[C@H](CC(N)=O)NC(=O)[C@@H]1CCCN1C(=O)[C@H](CO)NC(=O)[C@H](CO)NC(=O)[C@H](Cc1c[nH]cn1)NC(=O)[C@H](CCCNC(=N)N)NC(=O)[C@H](CC(C)C)NC(=O)[C@H](Cc1ccccc1)NC(=O)[C@H](CC(N)=O)NC(=O)[C@H](C)NC(=O)[C@H](CC(C)C)NC(=O)[C@H](CCCNC(=N)N)NC(=O)[C@H](CCC(N)=O)NC(=O)[C@@H](NC(=O)[C@H](C)NC(=O)[C@@H]1CSSC[C@H](NC(=O)[C@@H](N)CCCCNC(=O)COCCOCCNC(=O)CC[C@H](NC(=O)CCCCCCCCCCCCCCCCCCC(=O)O)C(=O)O)C(=O)N[C@@H](CC(N)=O)C(=O)N[C@@H]([C@@H](C)O)C(=O)N[C@@H](C)C(=O)N[C@@H]([C@@H](C)O)C(=O)N1)[C@@H](C)O)C(=O)N1CCC[C@H]1C(=O)N[C@@H](CO)C(=O)N[C@@H](CO)C(=O)N[C@H](C(=O)N[C@@H](CC(N)=O)C(=O)N[C@H](C(=O)NCC(=O)N[C@@H](CCCNC(=N)N)C(=O)N[C@@H](CC(N)=O)C(=O)N[C@H](C(=O)N[C@@H](Cc1ccc(O)cc1)C(N)=O)[C@@H](C)O)C(C)C)[C@@H](C)O
notes: also called compound 78
B4: N^ε1-[2-[2-[2-[[(4S)-4-carboxy-4-(19-carboxynonadecanoylamino)butanoyl]amino]ethoxy]ethoxy]acetyl]-[Arg17,Pro21,Pro27,Glu35]-h-amylin (peptide)
peptide: K([AEEA-γGlu-C20 diacid])CNTATCATQRLANFLRHSSPNFGAIPSSTNVGSETY-NH2
modifications: disulfide 2-7; N-terminus assumed
SMILES: CC[C@H](C)[C@H](NC(=O)[C@H](C)NC(=O)CNC(=O)[C@H](Cc1ccccc1)NC(=O)[C@H](CC(N)=O)NC(=O)[C@@H]1CCCN1C(=O)[C@H](CO)NC(=O)[C@H](CO)NC(=O)[C@H](Cc1c[nH]cn1)NC(=O)[C@H](CCCNC(=N)N)NC(=O)[C@H](CC(C)C)NC(=O)[C@H](Cc1ccccc1)NC(=O)[C@H](CC(N)=O)NC(=O)[C@H](C)NC(=O)[C@H](CC(C)C)NC(=O)[C@H](CCCNC(=N)N)NC(=O)[C@H](CCC(N)=O)NC(=O)[C@@H](NC(=O)[C@H](C)NC(=O)[C@@H]1CSSC[C@H](NC(=O)[C@@H](N)CCCCNC(=O)COCCOCCNC(=O)CC[C@H](NC(=O)CCCCCCCCCCCCCCCCCCC(=O)O)C(=O)O)C(=O)N[C@@H](CC(N)=O)C(=O)N[C@@H]([C@@H](C)O)C(=O)N[C@@H](C)C(=O)N[C@@H]([C@@H](C)O)C(=O)N1)[C@@H](C)O)C(=O)N1CCC[C@H]1C(=O)N[C@@H](CO)C(=O)N[C@@H](CO)C(=O)N[C@H](C(=O)N[C@@H](CC(N)=O)C(=O)N[C@H](C(=O)NCC(=O)N[C@@H](CO)C(=O)N[C@@H](CCC(=O)O)C(=O)N[C@H](C(=O)N[C@@H](Cc1ccc(O)cc1)C(N)=O)[C@@H](C)O)C(C)C)[C@@H](C)O
notes: also called compound 26
B5: N^ε1-[2-[2-[2-[[(4S)-4-carboxy-4-(19-carboxynonadecanoylamino)butanoyl]amino]ethoxy]ethoxy]acetyl]-[Arg14,Arg17,Pro21,Pro27,Pro31]-h-amylin (peptide)
peptide: K([AEEA-γGlu-C20 diacid])CNTATCATQRLARFLRHSSPNFGAIPSSTPVGSNTY-NH2
modifications: disulfide 2-7; N-terminus assumed
SMILES: CC[C@H](C)[C@H](NC(=O)[C@H](C)NC(=O)CNC(=O)[C@H](Cc1ccccc1)NC(=O)[C@H](CC(N)=O)NC(=O)[C@@H]1CCCN1C(=O)[C@H](CO)NC(=O)[C@H](CO)NC(=O)[C@H](Cc1c[nH]cn1)NC(=O)[C@H](CCCNC(=N)N)NC(=O)[C@H](CC(C)C)NC(=O)[C@H](Cc1ccccc1)NC(=O)[C@H](CCCNC(=N)N)NC(=O)[C@H](C)NC(=O)[C@H](CC(C)C)NC(=O)[C@H](CCCNC(=N)N)NC(=O)[C@H](CCC(N)=O)NC(=O)[C@@H](NC(=O)[C@H](C)NC(=O)[C@@H]1CSSC[C@H](NC(=O)[C@@H](N)CCCCNC(=O)COCCOCCNC(=O)CC[C@H](NC(=O)CCCCCCCCCCCCCCCCCCC(=O)O)C(=O)O)C(=O)N[C@@H](CC(N)=O)C(=O)N[C@@H]([C@@H](C)O)C(=O)N[C@@H](C)C(=O)N[C@@H]([C@@H](C)O)C(=O)N1)[C@@H](C)O)C(=O)N1CCC[C@H]1C(=O)N[C@@H](CO)C(=O)N[C@@H](CO)C(=O)N[C@H](C(=O)N1CCC[C@H]1C(=O)N[C@H](C(=O)NCC(=O)N[C@@H](CO)C(=O)N[C@@H](CC(N)=O)C(=O)N[C@H](C(=O)N[C@@H](Cc1ccc(O)cc1)C(N)=O)[C@@H](C)O)C(C)C)[C@@H](C)O
notes: also called compound 64
B6: N^ε1-[2-[2-[2-[[(4S)-4-carboxy-4-(19-carboxynonadecanoylamino)butanoyl]amino]ethoxy]ethoxy]acetyl]-[Arg14,Arg17,Pro21,Pro27]-h-amylin (peptide)
peptide: K([AEEA-γGlu-C20 diacid])CNTATCATQRLARFLRHSSPNFGAIPSSTNVGSNTY-NH2
modifications: disulfide 2-7; N-terminus assumed
SMILES: CC[C@H](C)[C@H](NC(=O)[C@H](C)NC(=O)CNC(=O)[C@H](Cc1ccccc1)NC(=O)[C@H](CC(N)=O)NC(=O)[C@@H]1CCCN1C(=O)[C@H](CO)NC(=O)[C@H](CO)NC(=O)[C@H](Cc1c[nH]cn1)NC(=O)[C@H](CCCNC(=N)N)NC(=O)[C@H](CC(C)C)NC(=O)[C@H](Cc1ccccc1)NC(=O)[C@H](CCCNC(=N)N)NC(=O)[C@H](C)NC(=O)[C@H](CC(C)C)NC(=O)[C@H](CCCNC(=N)N)NC(=O)[C@H](CCC(N)=O)NC(=O)[C@@H](NC(=O)[C@H](C)NC(=O)[C@@H]1CSSC[C@H](NC(=O)[C@@H](N)CCCCNC(=O)COCCOCCNC(=O)CC[C@H](NC(=O)CCCCCCCCCCCCCCCCCCC(=O)O)C(=O)O)C(=O)N[C@@H](CC(N)=O)C(=O)N[C@@H]([C@@H](C)O)C(=O)N[C@@H](C)C(=O)N[C@@H]([C@@H](C)O)C(=O)N1)[C@@H](C)O)C(=O)N1CCC[C@H]1C(=O)N[C@@H](CO)C(=O)N[C@@H](CO)C(=O)N[C@H](C(=O)N[C@@H](CC(N)=O)C(=O)N[C@H](C(=O)NCC(=O)N[C@@H](CO)C(=O)N[C@@H](CC(N)=O)C(=O)N[C@H](C(=O)N[C@@H](Cc1ccc(O)cc1)C(N)=O)[C@@H](C)O)C(C)C)[C@@H](C)O
notes: also called compound 82

Each binder was assayed against T1, human amylin 3(a) receptor (human …) (assay: cell-based or functional assay).

| Ratio hCT/hAmylin funct. (hCTR EC50 over hAmylin-R EC50) | hAmylin-R funct. EC50 (pM) | Binder |
| --- | --- | --- |
| 46.2 | 217 pM | B1 |
| 44.9 | 106 pM | B2 |
| 25.8 | 316 pM | B3 |
| 29.9 | 212 pM | B4 |
| 60.7 | 378 pM | B5 |
| 59.2 | 215 pM | B6 |
